# From US20070225226A1, “C-REACTIVE PROTEIN APHERESIS” (The American National Red Cross, priority 2006, published 2007)
# Read-outs that look alike come from different tables or passages of the source. Non-standard residues stand in square brackets, D forms with d. No end group written: not given here. 2Nal = N[C@@H](Cc1ccc2ccccc2c1)C(=O)O
# Key:
# CRP [1] = target: T1, CRP (Homo sapiens, UniProt P02741); conditions: rats undergoing acute myocardial infarction, human CRP injected; reference (24); cited from earlier work
# T1 sequence (P02741 19-224): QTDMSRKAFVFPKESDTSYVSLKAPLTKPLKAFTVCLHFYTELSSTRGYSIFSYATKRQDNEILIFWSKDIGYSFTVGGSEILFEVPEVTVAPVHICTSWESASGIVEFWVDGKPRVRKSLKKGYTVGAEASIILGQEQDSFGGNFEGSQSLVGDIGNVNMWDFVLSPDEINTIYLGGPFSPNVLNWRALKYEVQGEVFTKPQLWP
# CRP [2] = target: T1, CRP; experiment: Ability of resins to bind endogenous CRP from serum (LDS gel / Western blot of supernatant and eluate); assay type: binding; design: from tissue; host or cells: serum; conditions: two hours at room temperature, FIG. 1; for CRP detected in the supernatant after incubation with resin: 90 μl resin, 300 μl serum containing endogenous CRP; for binding of endogenous CRP by the resin: serum containing endogenous CRP
# Description: Several of the sequences identified in Example 2 were synthesized at gram scale to assay their ability to bind CRP. 90 μl of resin of ligands eSFAZZ (SEQ ID NO: 3), hGYIGL (SEQ ID NO: 8), vLRPWK (SEQ ID NO: 4), wZQKNH (SEQ ID NO: 7) and kZPDLH (SEQ ID NO: 6) (Z denotes 2′naphthylananine, small letters denote D amino acids, and capital letters denote L amino acids) were incubated with 300 μl of serum containing endogenous CRP, for two hours at room temperature. The supernatant was collected and the protein bound to the beads was eluted by incubation at 70° C. for ten minutes in 2×LDS sample buffer (Invitrogen). 10 μl of incubation supernatant or resin eluate was loaded per lane in an LDS gel and the proteins transferred to a nitrocellulose membrane. CRP was detected on the membrane using mouse anti-human CRP monoclonal antibody CRP-8 (Cat#C-1688, Lot# 094K4803), C=9.1 mg/ml (Sigma-Aldrich, St. Louis, Mo.) and affinity purified phosphatase labeled goat anti mouse IgG(□) human serum adsorbed (Cat#075-1802, Lot# XE084) (KPL, Gaithersburg, Md., USA).
# This was confirmed by the detection of CRP in the eluates from these resins. The opposite is true for the remaining resins. […] It should be noted that all three of these ligands have a positively charged amino acid at the carboxy terminus (K or H) while none of the negative resins have the positively charged residue.
# CRP [3] = target: T1, CRP; experiment: Equilibrium capacity for binding CRP spiked into plasma or citrate buffer (unbound CRP measured by ELISA); conditions: 80 μl resin, two hours at room temperature
# Description: The equilibrium capacity of wZQKNH (SEQ ID NO: 7) for binding CRP was determined with CRP spiked into 200 μl of plasma or citrate buffer. 80 μl of wZQKNH resin was mixed with the spiked materials and allowed to incubate for two hours at room temperature. The supernatant was collected and CRP remaining in the supernatant (unbound fraction) was measured by ELISA. The apparent dissociation constant (the reciprocal of the association constant) for CRP bound from buffer was 12.8×10^−9 M whereas the apparent dissociation constant for CRP bound from plasma was 370×10^−9M, indicating a level of interference in plasma, possibly arising from CRP associating with other plasma proteins which may alter its dissociation constant.
# [4] = target: Human CRP (C-reactive protein) (human) (UniProt P02741); experiment: Equilibrium binding of CRP spiked into plasma to 80 ul wZQKNH resin, 2 h at room temperature; unbound CRP measured by ELISA; apparent KD
# [5] = target: Human CRP (C-reactive protein) (human) (UniProt P02741); experiment: Equilibrium binding of CRP spiked into citrate buffer to 80 ul wZQKNH resin, 2 h at room temperature; unbound CRP measured by ELISA; apparent KD
Molecule,CRP detected in the supernatant after incubation with resin (CRP [2]),binding of endogenous CRP by the resin (CRP [2]),further results
"C[N+](C)(C)CCOP(=O)([O-])OCCCCCCOP(=O)([O-])OCC[N+](C)(C)C [1,6-bis(phosphocholine)-hexane]",,,increase in infarct size and cardiac dysfunction produced by human CRP (CRP [1]): abrogate
"Lys-Nal-Pro-Asp-Leu-His ([dK][2Nal]PDLH) [kZPDLH, hexamer peptide ligand on Toyopearl resin; Z denotes 2′naphthylalanine]",No CRP was detected,appear to bind endogenous CRP,
VLRPWK [hexamer peptide ligand on Toyopearl resin],No CRP was detected,appear to bind endogenous CRP,
"Trp-Nal-Gln-Lys-Asn-His ([dW][2Nal]QKNH) [wZQKNH, hexamer peptide ligand on Toyopearl resin; Z denotes 2′naphthylalanine]",No CRP was detected,appear to bind endogenous CRP,"Kd (CRP [3]; CRP spiked into citrate buffer, read-out: apparent dissociation constant for CRP bound from buffer): 12.8 nM; Kd (CRP [3]; CRP spiked into plasma, read-out: apparent dissociation constant for CRP bound from plasma): 370 nM"
wZQKNH (SEQ ID NO: 7) (peptide),,,Kd [4]: 370 nM; Kd [5]: 12.8 nM
